Assay [1] has as its target CFP-tagged ICln (C-ICln) (human) (UniProt P54105). Kind of assay: FRET or BRET; acceptor photobleaching FRET (FRETeff), living HEK cells 24 h after transfection, 37°C, slightly hypertonic extracellular solution (317 mOsm, pH 7.4); CFP donor, YFP acceptor; whole cell bleached.
Assay [2] has the same target. Kind of assay: FRET or BRET; acceptor photobleaching FRET (FRETeff), living HEK cells, 37°C, after 10 min exposure to the hypotonic extracellular solution; CFP donor, YFP acceptor. For orientation: In BRET a luciferase serves as donor, and the signal depends on an acceptor being close.

Chain of UniProt P54105 (P54105 whole entry): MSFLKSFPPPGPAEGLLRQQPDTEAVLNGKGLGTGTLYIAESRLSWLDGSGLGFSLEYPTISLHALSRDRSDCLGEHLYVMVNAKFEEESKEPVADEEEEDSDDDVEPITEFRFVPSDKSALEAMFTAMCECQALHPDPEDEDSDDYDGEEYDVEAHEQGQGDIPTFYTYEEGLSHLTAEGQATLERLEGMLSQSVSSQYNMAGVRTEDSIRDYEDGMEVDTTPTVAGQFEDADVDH

On to “YFP-tagged 4.1R^80 (Y-4.1R^80) (natural protein)”, for which the figures for the FRETeff in assay [1] and in assay [2] were 11.6 and 15.1, respectively.
